Source: paper PMC2909360

Experiments:
purified papain = biological target: T1, purified papain (UniProt P00784)
T1 sequence: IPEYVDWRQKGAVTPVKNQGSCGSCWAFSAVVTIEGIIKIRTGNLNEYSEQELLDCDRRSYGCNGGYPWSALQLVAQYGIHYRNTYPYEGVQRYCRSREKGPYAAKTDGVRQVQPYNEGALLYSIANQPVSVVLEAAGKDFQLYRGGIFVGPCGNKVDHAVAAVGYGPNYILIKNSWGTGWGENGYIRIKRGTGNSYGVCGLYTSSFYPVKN

[1] = biological target: purified bovine cathepsin C (bovine)
[2] = biological target: recombinant human cathepsin S (human) (UniProt P25774)
[3] = biological target: T2, purified human cathepsin H (human)
T2 sequence (P09668 116-335, looked up): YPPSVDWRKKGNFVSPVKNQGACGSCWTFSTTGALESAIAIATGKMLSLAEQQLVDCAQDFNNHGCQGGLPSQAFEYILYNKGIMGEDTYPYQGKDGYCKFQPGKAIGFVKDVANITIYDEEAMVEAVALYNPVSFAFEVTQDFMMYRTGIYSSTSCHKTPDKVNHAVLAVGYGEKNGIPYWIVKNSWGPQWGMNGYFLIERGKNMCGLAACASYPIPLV

[4] = biological target: purified bovine cathepsin B (bovine)
[5] = biological target: recombinant human cathepsin L (human) (UniProt P07711)
[6] = biological target: sialostatin L (Ixodes scapularis) (UniProt Q8MVB6); assay: crystal structure

Chain of purified chicken egg white cystatin (P01038 24-139): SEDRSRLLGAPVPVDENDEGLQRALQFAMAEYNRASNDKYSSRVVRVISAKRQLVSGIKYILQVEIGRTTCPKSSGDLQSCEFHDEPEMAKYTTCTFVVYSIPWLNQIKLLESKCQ
Chain of recombinant human cathepsin S (human) (P25774 17-331): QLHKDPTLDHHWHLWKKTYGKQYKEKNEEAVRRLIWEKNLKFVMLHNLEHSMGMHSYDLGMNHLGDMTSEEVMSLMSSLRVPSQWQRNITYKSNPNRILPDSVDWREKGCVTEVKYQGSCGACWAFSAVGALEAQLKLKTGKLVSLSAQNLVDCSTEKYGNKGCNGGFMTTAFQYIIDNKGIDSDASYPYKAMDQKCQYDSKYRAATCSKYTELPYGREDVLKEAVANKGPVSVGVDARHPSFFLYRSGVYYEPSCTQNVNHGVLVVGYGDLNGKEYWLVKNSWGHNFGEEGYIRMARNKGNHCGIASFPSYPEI
Chain of purified bovine cathepsin C (bovine) (Q3ZCJ8 25-463): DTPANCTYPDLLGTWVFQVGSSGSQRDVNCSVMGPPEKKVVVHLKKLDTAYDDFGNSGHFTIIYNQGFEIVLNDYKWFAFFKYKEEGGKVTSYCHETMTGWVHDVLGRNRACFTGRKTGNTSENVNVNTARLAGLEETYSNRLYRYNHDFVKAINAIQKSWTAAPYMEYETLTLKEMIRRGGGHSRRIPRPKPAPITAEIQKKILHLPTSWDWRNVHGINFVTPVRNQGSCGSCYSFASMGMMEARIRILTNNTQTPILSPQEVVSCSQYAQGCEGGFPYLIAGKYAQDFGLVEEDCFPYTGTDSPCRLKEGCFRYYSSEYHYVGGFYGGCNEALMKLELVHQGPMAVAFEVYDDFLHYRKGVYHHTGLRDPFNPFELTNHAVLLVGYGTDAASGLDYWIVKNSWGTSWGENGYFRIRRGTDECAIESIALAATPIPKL
Chain of recombinant human cathepsin L (human) (P07711 18-333): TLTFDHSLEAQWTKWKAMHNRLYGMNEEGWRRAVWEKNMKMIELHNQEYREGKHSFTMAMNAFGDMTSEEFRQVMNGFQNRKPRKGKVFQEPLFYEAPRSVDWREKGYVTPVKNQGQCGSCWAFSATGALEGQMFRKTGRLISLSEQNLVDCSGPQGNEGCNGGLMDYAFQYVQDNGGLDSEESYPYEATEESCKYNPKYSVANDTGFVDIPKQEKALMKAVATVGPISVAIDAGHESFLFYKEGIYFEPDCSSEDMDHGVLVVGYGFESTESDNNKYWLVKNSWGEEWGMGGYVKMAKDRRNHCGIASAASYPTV

Row | Substance | IC50 of inhibition of enzyme activity (fluorogenic substrate) (purified papain) | IC50 of inhibition of enzyme activity (fluorogenic substrate) [1] | IC50 of inhibition of enzyme activity (fluorogenic substrate) [2] | IC50 of inhibition of enzyme activity (fluorogenic substrate) [3] | IC50 of inhibition of enzyme activity (fluorogenic substrate) [4] | IC50 of inhibition of enzyme activity (fluorogenic substrate) [5] | stoichiometry N [6]
1 | purified chicken egg white cystatin (from UniProt P01038 24-139) (natural protein) | 4.4 nM | 3.1 nM | 3.2 nM | 39 nM | 800 nM | 2.9 nM | 
2 | sialostatin L (from UniProt Q8MVB6 20-133) (natural protein) |  |  |  |  |  |  | 2
